Data reported in patent US20200331999 (published 2020).

Legend:
[1] = target: T1, human TIGIT-Fc (human); experiment: competition, FACS, blocking binding to PVR on HEK293
T1 chain: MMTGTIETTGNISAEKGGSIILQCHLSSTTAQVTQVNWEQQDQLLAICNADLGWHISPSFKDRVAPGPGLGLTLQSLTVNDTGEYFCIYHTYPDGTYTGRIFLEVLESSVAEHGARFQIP

[2] = target: T2, human TIGIT ECD (human); experiment: SPR, pH 7.4
T2 chain: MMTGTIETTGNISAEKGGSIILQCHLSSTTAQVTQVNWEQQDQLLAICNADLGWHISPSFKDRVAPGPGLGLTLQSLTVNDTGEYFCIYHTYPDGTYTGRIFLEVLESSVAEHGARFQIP

[3] = target: T2, human TIGIT ECD; experiment: SPR, pH 6.0
[4] = target: T1, human TIGIT-Fc; experiment: competition, FACS, blocking binding to PVR-L2 on HEK293

IC50 [1]: 0.64 µg/mL
Kd [2]: 219 pM
Kd [3]: 29.9 pM
IC50 [4]: 0.25 µg/mL
B1: hu1217-2-2/IgG1 (antibody, V domains shown)
VH: EVQLVESGGGLVQPGGSLRLSCAASGFTFSDYYMYWVRQAPGKGLEWVAYITKGGGSTYYPDSVKGRFTISRDNAKNTLYLQMNSLRAEDTAVYYCARQTNYDFTMDYWGQGTLVTVSS
VL: EIVMTQSPATLSVSPGERATLSCKASQDVGTSVAWYQQKPGQAPRLLIYWASARHTGIPARFSGSGSGTEFTLTISSLQSEDFAVYYCQQYSSYPLTFGGGTKVEIK
modifications: wild-type human IgG1 Fc
